Patent publication US20160130324A1

Target: rhC1s (human) (UniProt P09871)
Experiment: inhibition of C1s cleavage of a colorimetric peptide substrate, mean OD value; C is the midpoint of the 4-parameter fit

rhC1s (human), sequence (P09871 16-688 limits assumed): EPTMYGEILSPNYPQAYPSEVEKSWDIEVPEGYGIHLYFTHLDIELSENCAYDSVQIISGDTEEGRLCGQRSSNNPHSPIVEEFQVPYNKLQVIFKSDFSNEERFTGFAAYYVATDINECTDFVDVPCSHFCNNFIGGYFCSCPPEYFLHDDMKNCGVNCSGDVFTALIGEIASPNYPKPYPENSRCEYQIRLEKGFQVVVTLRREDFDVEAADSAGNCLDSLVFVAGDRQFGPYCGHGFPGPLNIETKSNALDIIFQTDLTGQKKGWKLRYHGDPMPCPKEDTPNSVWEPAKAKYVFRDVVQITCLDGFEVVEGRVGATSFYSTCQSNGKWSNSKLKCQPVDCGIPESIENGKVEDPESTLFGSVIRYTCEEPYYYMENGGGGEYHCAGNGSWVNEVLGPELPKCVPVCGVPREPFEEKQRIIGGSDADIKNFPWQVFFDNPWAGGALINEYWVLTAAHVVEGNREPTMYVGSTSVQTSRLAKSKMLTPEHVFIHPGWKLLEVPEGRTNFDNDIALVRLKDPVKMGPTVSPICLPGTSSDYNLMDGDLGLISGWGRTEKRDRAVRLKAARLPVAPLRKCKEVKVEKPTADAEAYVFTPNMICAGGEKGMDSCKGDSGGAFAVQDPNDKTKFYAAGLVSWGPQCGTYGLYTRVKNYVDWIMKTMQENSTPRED

Row | IC50 | Substance
1 | 1.67 nM | HSA-C1-INH
2 | 1.45 nM | HSA_D3-C1-INH
